The record followed here is article PMC3439536.

The term Kd denotes the constant that tells how readily two partners part at equilibrium. Read a high Kd as a looser complex.

The chains are these.
B1: 16bp scrambled DNA (dsDNA)
DNA 1: ATGCATGCTGACTACG
DNA 2: CGTAGTCAGCATGCAT
B2: 25bp adenoviral E1a DNA (dsDNA)
DNA 1: TTCTATGCCAAACCTTGTGCCGGAG
DNA 2: CTCCGGCACAAGGTTTGGCATAGAA
B3: 50% CpG rich DNA (dsDNA)
DNA 1: TTCGATCGCACGCCCG
DNA 2: CGGGCGTGCGATCGAA
B4: 15bp adenoviral E1a DNA (dsDNA)
DNA 1: TTCTATGCCAAACCT
DNA 2: AGGTTTGGCATAGAA

In this data set the target is CR2 SCR1-4-BCCP (Homo sapiens, UniProt P20023 21-273). Briefly: SPR. (Surface plasmon resonance follows binding to a sensor surface in real time, without labels.)
Chain of CR2 SCR1-4-BCCP (P20023 21-273): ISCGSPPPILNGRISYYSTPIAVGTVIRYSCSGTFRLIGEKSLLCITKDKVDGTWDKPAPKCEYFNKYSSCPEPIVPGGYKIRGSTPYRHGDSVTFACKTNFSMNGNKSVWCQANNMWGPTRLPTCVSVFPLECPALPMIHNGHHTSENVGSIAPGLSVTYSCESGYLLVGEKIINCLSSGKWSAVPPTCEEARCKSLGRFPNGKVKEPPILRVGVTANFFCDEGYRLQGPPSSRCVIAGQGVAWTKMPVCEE
As for B1, the Kd amounted to 266 nM. This counts as sub-micromolar.

Take B2: the Kd came out at 358 nM. The value for B3 was 509 nM; that for B4 was 245 nM.
